Experimental data: paper PMC10607743, “An Enzymatic Strategy for the Selective Methylation of High-Value-Added Tetrahydroprotoberberine Alkaloids” (International Journal of Molecular Sciences, 2023)

Legend:
[1] = test system: Oc1cc2c(cc1O)C1Cc3ccc(O)c(O)c3CN1CC2; assay: purified protein; conditions: 100 mM Tris-HCl, 37 °C, substrate 50-500 μM, methyl donor SAM (concentration and pH not given)
[2] = target: T1, PsSOMT (Papaver somniferum, UniProt I3PLQ7); conditions: 100 mM Tris-HCl, 37 °C, substrate 50-500 μM; methyl donor SAM (concentration and pH not given)
T1 construct: gene SOMT3
T1 sequence (I3PLQ7 whole entry): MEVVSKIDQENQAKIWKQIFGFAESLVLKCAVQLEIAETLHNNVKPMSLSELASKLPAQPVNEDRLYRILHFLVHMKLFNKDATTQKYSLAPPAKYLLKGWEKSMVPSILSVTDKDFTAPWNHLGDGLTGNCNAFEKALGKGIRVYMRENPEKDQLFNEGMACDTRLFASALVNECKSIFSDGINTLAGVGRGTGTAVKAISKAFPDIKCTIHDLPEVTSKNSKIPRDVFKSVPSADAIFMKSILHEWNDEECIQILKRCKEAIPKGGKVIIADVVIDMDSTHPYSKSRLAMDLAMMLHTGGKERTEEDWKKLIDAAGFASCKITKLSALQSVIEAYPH

Molecule | Km [1] | Vmax [1] | kcat [1] | kcat/Km [1] | Km [2]
Cj4’OMT (Coptis japonica) | 83.50 ± 19.72 µM | 1.09 µmol/min/mg | 1.09 ± 0.08 s⁻¹ | 13000 M⁻¹ s⁻¹ | –
Oc1cc2c(cc1O)C1Cc3ccc(O)c(O)c3CN1CC2 (centres unmarked) [2,3,9,10-tetrahydroxyberbine] | – | – | – | – | 53.8 ± 12 µM
